In PMC6011117, “Comparative Evaluation of Radioiodine and Technetium-Labeled DARPin 9_29 for Radionuclide Molecular Imaging of HER2 Expression in Malignant Tumors” (Contrast Media & Molecular Imaging, 2018):
One block for each binder: values may come before it.

Biological target: T1, human epidermal growth factor receptor 2 (HER2) (human (endogenous in SKOV-3, BT474, …, UniProt P04626 23-1255))
T1 construct: human epidermal growth factor receptor 2 (HER2), endogenous on the cell lines SKOV-3, BT474 and DU145; also called HER2 receptor; source: endogenous, on living SKOV-3, BT474 and DU145 cells
Test: radioligand binding; LigandTracer, real-time association and dissociation on living SKOV-3 cells at room temperature; radioconjugate at 1, 4 and 8 nM; TraceDrawer fit with a 1:2 binding model
Conditions: one partner purified

KD of the strongest interaction (1:2 binding model): 0.362 ± 0.13 nM | KD of the weaker interaction (1:2 binding model): 7.7 ± 2.8 nM
B1: [125I]I-DARPin 9_29 (designed binder)
chain: MDLGKKLLEAARAGQDDEVRILMANGADVNAHDFYGITPLHLAANFGHLEIVEVLLKHGADVNAFDYDNTPLHLAADAGHLEIVEVLLKYGADVNASDRDGHTPLHLAAREGHLEIVEVLLKNGADVNAQDKFGKTAFDISIDNGNEDLAEILQKLAAALE
modifications: iodine-125 label attached to tyrosine (direct radioiodination)
notes: designed ankyrin repeat protein 9_29 against HER2; also called radioiodinated DARPin 9_29; source: E. coli BL21(DE3), purified (HisTrap HP, MonoQ); directly radioiodinated with chloramine T, purified on NAP-5; not shown: His6, C-terminal, kept

KD of the strongest interaction (1:2 binding model): 0.439 ± 0.156 nM | KD of the weaker interaction (1:2 binding model): 9.1 ± 2.7 nM
B2: [99mTc]Tc(CO)3-DARPin 9_29 (designed binder)
chain: B1 chain
modifications: [99mTc]Tc(CO)3 chelated by the C-terminal hexahistidine tag
notes: designed ankyrin repeat protein 9_29 against HER2; also called 99mTc(CO)3-DARPin 9_29; [99mTc]Tc-DARPin 9_29; source: E. coli BL21(DE3), purified (HisTrap HP, MonoQ); labelled with technetium-99m tricarbonyl, purified on NAP-5; not shown: His6, C-terminal, kept
